Measurements taken from patent publication US20100184658A1 (published 2010).

How the values were obtained:
Test in all cases: cell-based or functional assay
IR (h) = IR (h) (human (printed as (h)), UniProt P06213 1005-1310, limits assumed)
[1] = molecular target: T1, RPS6KB1 (p70S6K) Ribosomal protein S6 kinase, 70 kDa, polypeptide 1 (human (printed as (h)), UniProt P23443 1-421, limits assumed)
AKT2 (PKB beta) = AKT2 (PKB beta) (human (printed as (h)), UniProt P31751 1-481, limits assumed)
PRKCZ (PKC zeta) = molecular target: T2, PRKCZ (PKC zeta) (human (printed as (h)), UniProt Q05513 1-592, limits assumed)
T2 sequence (looked up): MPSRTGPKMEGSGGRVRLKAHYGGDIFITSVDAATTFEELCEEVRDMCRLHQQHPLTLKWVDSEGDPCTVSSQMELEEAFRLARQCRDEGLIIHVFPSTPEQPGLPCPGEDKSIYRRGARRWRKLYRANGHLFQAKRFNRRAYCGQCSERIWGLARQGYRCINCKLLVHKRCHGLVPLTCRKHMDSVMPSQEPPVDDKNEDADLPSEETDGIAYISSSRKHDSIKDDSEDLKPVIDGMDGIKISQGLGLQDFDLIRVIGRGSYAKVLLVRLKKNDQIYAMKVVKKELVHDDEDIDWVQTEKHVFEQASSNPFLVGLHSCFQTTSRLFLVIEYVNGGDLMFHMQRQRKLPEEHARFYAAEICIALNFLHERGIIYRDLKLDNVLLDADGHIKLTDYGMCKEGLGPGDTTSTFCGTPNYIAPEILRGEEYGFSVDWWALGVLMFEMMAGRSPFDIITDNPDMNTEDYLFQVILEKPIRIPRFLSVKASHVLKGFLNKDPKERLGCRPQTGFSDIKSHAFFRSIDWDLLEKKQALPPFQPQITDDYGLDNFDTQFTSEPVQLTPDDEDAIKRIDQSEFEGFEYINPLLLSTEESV

[2] = molecular target: RPS6KA3 (RSK2) Ribosomal protein S6 kinase, 90 kDa, polypeptide 3 (UniProt P51812 1-740, limits assumed)
[3] = molecular target: RPS6KA4 (MSK2) Ribosomal protein S6 kinase, 90 kDa, polypeptide 4 (UniProt O75676 1-772, limits assumed)
[4] = molecular target: T1, RPS6KB1 (p70S6K) Ribosomal protein S6 …; remark: listed apart in the source
ABL1 T315I = ABL1 T315I (UniProt P00519 1-1130, limits assumed)
[5] = molecular target: T3, NEK1 NIMA (never in mitosis gene a)-related kinase 1 (UniProt Q96PY6 1-505, limits assumed)
T3 sequence (looked up): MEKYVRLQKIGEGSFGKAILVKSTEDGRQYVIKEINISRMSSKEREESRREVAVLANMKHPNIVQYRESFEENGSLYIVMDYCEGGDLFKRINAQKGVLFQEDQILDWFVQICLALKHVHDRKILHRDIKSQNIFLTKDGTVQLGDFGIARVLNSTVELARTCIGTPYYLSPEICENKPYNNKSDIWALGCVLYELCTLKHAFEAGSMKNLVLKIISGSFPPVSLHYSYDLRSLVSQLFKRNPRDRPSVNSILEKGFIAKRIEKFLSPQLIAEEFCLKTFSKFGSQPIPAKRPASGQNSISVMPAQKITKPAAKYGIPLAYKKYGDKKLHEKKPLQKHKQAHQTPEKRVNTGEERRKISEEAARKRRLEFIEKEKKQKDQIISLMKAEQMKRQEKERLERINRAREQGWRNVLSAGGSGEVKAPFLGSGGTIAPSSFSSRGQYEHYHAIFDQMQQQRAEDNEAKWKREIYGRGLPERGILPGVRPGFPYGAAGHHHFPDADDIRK

CHEK2 (CHK2) = CHEK2 (CHK2) (UniProt O96017 1-543, limits assumed)
CLK3 = CLK3 (UniProt P49761 1-490, limits assumed)
[6] = molecular target: MINK1 Misshapen-like kinase 1 (UniProt Q8N4C8 1-320, limits assumed)
MATK (HYL) = molecular target: T4, MATK (HYL) (UniProt P42679 1-507, limits assumed)
T4 sequence (looked up): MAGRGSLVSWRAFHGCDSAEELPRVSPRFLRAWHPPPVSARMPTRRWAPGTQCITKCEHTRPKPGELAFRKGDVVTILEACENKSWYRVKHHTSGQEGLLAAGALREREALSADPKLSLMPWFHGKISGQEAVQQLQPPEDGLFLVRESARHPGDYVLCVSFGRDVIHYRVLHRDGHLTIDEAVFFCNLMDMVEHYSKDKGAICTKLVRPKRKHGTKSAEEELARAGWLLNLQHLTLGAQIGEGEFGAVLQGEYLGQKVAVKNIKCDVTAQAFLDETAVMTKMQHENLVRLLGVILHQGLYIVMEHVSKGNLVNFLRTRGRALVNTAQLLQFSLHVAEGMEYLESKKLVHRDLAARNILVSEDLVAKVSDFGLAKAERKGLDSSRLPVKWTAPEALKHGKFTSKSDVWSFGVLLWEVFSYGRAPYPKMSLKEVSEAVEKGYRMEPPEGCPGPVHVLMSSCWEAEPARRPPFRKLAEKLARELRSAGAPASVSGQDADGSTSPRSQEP

[7] = molecular target: MAP2K2 (MEK2) Mitogen-activated protein kinase kinase 2 (UniProt P36507 1-400, limits assumed)

Sequence of AKT2 (PKB beta) (human (printed as (h)), UniProt P31751 1-481, limits assumed) (P31751 whole entry): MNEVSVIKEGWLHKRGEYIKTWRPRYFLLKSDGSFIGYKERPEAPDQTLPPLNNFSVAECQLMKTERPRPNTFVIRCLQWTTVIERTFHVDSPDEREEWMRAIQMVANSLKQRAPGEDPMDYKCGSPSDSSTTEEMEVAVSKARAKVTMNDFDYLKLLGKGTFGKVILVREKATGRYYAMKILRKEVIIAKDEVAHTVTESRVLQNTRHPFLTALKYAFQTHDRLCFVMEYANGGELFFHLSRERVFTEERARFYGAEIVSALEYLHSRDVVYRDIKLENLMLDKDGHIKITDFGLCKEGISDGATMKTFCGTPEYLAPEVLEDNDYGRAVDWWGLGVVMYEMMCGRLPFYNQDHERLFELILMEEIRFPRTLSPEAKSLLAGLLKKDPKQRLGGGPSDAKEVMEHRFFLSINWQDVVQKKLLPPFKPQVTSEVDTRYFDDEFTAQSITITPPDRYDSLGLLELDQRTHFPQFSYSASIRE
T1 sequence (P23443 1-421 limits assumed): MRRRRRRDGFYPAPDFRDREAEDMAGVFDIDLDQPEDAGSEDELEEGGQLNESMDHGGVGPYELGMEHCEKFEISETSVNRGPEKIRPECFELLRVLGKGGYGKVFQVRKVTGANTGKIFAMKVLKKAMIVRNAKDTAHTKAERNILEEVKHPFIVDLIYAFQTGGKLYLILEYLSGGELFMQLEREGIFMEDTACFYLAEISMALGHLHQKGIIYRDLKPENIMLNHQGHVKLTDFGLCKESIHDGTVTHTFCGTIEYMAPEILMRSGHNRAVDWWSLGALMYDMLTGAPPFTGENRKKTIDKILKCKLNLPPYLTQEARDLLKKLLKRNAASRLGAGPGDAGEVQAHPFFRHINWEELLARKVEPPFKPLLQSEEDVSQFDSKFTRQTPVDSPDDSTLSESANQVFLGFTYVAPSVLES
Sequence of IR (h) (human (printed as (h)), UniProt P06213 1005-1310, limits assumed) (P06213 1005-1310 limits assumed): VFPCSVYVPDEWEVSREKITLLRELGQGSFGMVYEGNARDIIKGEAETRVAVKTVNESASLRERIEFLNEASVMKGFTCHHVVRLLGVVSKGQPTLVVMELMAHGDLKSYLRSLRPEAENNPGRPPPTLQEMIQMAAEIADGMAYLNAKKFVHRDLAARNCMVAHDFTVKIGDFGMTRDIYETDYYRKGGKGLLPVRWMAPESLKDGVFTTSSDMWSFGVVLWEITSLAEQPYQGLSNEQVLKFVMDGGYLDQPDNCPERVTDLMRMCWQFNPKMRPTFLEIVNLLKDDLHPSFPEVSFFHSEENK
Sequence of RPS6KA4 (MSK2) Ribosomal protein S6 kinase, 90 kDa, polypeptide 4 (O75676 whole entry): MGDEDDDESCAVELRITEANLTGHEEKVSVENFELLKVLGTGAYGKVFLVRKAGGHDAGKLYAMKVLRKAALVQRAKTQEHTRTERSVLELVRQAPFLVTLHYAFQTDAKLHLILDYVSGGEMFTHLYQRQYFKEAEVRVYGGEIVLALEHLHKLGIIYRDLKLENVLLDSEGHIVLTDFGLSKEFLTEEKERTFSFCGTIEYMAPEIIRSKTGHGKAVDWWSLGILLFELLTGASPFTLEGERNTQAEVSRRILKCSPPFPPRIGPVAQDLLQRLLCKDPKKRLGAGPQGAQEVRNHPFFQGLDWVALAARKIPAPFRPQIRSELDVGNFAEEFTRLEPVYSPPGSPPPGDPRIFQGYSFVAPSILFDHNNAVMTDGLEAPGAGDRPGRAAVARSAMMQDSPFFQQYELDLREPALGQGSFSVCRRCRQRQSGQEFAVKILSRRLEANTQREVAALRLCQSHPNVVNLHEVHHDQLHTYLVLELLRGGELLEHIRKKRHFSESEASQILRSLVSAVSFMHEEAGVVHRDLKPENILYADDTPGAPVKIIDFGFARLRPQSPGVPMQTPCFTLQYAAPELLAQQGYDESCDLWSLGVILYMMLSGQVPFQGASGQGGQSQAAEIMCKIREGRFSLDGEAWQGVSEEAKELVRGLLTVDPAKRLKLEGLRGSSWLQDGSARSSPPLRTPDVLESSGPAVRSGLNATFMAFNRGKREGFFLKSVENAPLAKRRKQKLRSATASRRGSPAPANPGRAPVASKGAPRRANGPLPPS
Sequence of CLK3 (P49761 whole entry): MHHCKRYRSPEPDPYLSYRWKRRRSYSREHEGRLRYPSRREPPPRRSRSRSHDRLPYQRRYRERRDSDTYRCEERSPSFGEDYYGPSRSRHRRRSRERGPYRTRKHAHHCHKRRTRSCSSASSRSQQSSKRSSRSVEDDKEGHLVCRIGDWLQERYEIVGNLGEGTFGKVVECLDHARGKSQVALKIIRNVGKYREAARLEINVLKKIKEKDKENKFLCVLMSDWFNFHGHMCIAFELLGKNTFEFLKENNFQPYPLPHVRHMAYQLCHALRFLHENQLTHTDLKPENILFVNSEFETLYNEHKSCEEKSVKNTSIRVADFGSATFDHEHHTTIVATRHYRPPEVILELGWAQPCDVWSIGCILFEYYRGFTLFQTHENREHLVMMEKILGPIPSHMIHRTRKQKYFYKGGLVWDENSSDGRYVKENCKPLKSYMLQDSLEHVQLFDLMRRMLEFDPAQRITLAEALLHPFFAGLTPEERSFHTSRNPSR
Sequence of RPS6KA3 (RSK2) Ribosomal protein S6 kinase, 90 kDa, polypeptide 3 (P51812 whole entry): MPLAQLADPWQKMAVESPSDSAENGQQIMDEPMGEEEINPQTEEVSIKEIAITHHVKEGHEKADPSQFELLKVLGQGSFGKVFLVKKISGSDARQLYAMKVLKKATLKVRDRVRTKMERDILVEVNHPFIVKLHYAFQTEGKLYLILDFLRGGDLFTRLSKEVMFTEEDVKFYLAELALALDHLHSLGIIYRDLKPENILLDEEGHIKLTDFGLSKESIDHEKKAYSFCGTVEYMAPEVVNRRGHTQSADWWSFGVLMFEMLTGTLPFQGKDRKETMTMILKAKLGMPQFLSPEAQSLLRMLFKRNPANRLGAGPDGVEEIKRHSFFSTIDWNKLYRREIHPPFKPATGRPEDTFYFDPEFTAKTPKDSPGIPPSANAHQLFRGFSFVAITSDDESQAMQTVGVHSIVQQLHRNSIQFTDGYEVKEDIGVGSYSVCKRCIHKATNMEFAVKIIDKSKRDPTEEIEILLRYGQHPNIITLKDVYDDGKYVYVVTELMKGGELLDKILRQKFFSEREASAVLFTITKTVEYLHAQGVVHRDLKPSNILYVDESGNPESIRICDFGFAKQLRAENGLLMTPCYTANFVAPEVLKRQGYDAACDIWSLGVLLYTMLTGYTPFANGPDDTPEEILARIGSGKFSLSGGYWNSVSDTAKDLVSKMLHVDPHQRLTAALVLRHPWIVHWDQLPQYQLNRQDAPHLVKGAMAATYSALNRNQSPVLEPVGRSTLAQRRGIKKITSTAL
Sequence of ABL1 T315I (P00519 whole entry T315I): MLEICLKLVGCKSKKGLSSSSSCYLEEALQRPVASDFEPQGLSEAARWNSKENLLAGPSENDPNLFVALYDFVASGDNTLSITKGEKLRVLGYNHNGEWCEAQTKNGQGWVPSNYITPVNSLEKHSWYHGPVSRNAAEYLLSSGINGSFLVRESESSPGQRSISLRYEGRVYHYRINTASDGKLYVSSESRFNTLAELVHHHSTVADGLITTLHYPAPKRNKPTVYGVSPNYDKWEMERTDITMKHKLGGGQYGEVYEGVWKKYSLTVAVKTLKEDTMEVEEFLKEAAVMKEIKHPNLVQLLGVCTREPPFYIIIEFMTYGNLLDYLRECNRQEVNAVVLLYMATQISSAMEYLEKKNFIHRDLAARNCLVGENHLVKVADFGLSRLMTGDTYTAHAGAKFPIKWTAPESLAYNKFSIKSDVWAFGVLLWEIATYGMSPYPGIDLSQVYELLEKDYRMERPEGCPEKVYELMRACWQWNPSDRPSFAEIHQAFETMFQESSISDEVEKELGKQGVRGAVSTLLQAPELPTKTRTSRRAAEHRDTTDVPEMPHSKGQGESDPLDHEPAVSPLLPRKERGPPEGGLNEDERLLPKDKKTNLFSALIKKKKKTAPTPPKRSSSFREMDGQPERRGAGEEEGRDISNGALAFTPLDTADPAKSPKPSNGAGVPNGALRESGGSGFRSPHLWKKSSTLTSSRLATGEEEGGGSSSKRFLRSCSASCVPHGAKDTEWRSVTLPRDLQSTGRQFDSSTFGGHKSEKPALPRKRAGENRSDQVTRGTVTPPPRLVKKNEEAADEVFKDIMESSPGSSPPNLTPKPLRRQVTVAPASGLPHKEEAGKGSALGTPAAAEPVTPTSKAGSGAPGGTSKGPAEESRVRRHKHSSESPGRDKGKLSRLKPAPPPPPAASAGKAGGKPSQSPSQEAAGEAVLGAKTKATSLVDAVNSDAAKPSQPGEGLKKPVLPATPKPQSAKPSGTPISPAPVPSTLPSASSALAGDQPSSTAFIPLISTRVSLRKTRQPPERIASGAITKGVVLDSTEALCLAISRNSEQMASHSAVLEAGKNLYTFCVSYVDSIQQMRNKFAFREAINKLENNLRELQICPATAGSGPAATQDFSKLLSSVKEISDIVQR
Sequence of CHEK2 (CHK2) (O96017 whole entry): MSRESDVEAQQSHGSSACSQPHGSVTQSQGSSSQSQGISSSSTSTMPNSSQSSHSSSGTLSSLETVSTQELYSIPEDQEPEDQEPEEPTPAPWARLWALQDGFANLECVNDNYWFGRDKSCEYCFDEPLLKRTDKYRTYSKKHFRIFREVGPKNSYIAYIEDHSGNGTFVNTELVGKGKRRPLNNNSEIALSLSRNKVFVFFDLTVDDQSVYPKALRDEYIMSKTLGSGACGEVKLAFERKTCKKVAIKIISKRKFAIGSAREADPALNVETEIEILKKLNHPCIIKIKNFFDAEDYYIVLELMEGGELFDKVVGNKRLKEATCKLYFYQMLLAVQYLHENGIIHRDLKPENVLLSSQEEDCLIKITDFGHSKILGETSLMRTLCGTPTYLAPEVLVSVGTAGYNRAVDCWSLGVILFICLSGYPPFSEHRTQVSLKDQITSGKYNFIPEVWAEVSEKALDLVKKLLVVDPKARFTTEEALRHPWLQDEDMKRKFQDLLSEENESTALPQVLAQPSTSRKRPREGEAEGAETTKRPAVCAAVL

SGRPPMIVWFNRPFLIAVSHTHGQTILFMAKVINPVGA [D3 peptide]
D3 at 0.1 µM % activity (IR (h)): 96% | D3 at 1 µm % activity (IR (h)): 103% | D3 at 0.1 µM % activity [1]: 73% | D3 at 1 µm % activity [1]: 22% | IC50 [1]: 0.373 µM | D3 at 0.1 µM % activity (AKT2 (PKB beta)): 63% | D3 at 1 µm % activity (AKT2 (PKB beta)): 12% | IC50 (AKT2 (PKB beta)): 0.448 µM | % Inhibition mean (PRKCZ (PKC zeta)): 74.4% | % Inhibition mean [2]: 93% | % Inhibition mean [3]: 96.8% | % Inhibition mean [4]: 100% | % Inhibition mean (ABL1 T315I): 69.8% | % Inhibition mean [5]: 84% | % Inhibition mean (CHEK2 (CHK2)): 62.1% | % Inhibition mean (CLK3): 46% | % Inhibition mean [6]: 101% | % Inhibition mean (MATK (HYL)): 55.6% | % Inhibition mean [7]: 105%
